Measurements: patent publication US20190241657A1 (Sanofi, published 2019)

Key:
[1] = molecular target: T1, CD123 on THP-1 target cells (UniProt P26951 19-378); assay: cell-based or functional assay
[2] = molecular target: T1, CD123 on THP-1 target cells; assay: cell-based or functional assay; remark: listed apart in the source
[3] = molecular target: T1, CD123 on THP-1 target cells; assay: cell-based or functional assay; remark: listed apart in the source
[4] = molecular target: T1, CD123 on THP-1 target cells; assay: cell-based or functional assay; remark: listed apart in the source
[5] = molecular target: T2, mature human CD123 His-II tagged Fc-fusion protein (human); assay: SPR (Biacore), CD123-Fc-His captured with His capture kit, CODV as analyte, 1:1 Langmuir with mass transfer
T2 construct: also called huCD123; CD123-Fc-His
T2 sequence (chain, as listed by the source limits assumed): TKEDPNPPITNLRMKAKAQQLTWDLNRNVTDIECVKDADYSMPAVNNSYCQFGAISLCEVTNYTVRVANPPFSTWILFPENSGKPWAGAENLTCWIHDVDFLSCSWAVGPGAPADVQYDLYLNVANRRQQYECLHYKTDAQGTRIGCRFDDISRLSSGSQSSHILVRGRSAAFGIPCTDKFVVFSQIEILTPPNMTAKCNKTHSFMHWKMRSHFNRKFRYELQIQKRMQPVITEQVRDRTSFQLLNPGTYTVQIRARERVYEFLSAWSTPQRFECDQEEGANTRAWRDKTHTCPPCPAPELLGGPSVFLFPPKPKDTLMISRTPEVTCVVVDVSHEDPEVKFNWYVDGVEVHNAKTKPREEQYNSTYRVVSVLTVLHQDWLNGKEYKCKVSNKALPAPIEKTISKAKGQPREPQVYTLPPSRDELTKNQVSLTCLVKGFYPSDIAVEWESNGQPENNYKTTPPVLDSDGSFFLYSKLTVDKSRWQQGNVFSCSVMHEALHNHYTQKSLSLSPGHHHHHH
Protocol: (§1) Binding affinities of CODV antibody-like binding proteins to human CD3ε/δ and human CD123 were measured by surface plasmon resonance (SPR) using a Biacore3000 or Biacore T200 instrument (GE Healthcare) with HBS-EP (GE Healthcare) as assay buffer). Capture of CD3ε/δ-Fc or CD123-Fc-His fusion proteins was achieved using the His capture kit (GE Healthcare). The capture antibody was coupled to CM5 chips (GE Healthcare) to approx. 12.000 RU using the amine coupling kit (BR-100-50, GE Healthcare). The CD3εδ-Fc or CD123-Fc-His fusion proteins were captured at 10 μl/min to yield Rmax values of 30 RU. Binding kinetics with the CODV antibody-like binding proteins was measured at 30 μl/min Twofold dilutions of CODV antibody-like binding proteins from 3 to 200 nM in assay buffer were used. All Fab concentrations were run in duplicate together with duplicate buffer blanks for double referencing. Regeneration of the capture surface was performed with a 1 min injection of 10 mM Glycine pH1.5 at 30 μl/min. For data analysis the BIAevaluation software (GE Healthcare) was used. Data were fit globally using a 1:1 Langmuir model with mass transfer.

[6] = molecular target: T2, mature human CD123 His-II tagged …; assay: Biacore
Protocol: Cytotoxic effects of the CODV-Fab-TL1-RF “hz20G6×hz7G3”, CODV-Fab-OL1 “hz20G6×hz7G3” and the single chain DART MGD006 were assessed. Affinities to the CD3ε/δ-complex and CD123 of each bispecific construct were measured by Biacore. Furthermore, a cytotoxic assay was performed as described in 2.8 (table 3).
as §1, with “Data were fit globally using a 1:1 Langmuir model with mass transfer.” left out

[7] = molecular target: T1, CD123 on THP-1 target cells; assay: cell-based or functional assay; remark: listed apart in the source
[8] = molecular target: T1, CD123 on THP-1 target cells; assay: cell-based or functional assay; remark: listed apart in the source
[9] = molecular target: T1, CD123 on THP-1 target cells; assay: cell-based or functional assay; remark: listed apart in the source

T1 sequence (P26951 19-378): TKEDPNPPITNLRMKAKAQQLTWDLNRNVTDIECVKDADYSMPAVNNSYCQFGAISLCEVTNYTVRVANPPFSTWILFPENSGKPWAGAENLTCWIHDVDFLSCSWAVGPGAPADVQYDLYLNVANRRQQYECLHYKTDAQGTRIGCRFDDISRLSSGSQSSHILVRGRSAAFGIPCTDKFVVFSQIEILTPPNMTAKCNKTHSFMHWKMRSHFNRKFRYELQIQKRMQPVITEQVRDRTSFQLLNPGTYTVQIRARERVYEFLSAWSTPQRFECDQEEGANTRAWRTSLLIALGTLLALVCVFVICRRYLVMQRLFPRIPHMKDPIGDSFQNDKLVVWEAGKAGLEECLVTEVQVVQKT

Row | Binder | flow cytometry based cytotoxic assay, EC50 (pM) GMean [1] | T-cell Activation with THP-1 target cells, CD4+/CD69+ EC50 (pM) GMean [2] | T-cell Activation with THP-1 target cells, CD8+/CD69+ EC50 (pM) GMean [2] | Activity - CD4+/CD69+ % Activation C = 100 nM Mean (with THP-1 target cells) [3] | Activity - CD8+/CD69+ % Activation C = 100 nM Mean (with THP-1 target cells) [4] | Kd [5] | koff [5] | kon [5] | Kd [6] | T cell activation with THP-1 target cells, CD4+ T cells (% CD69+ cells) EC50 [7] | T cell activation with THP-1 target cells, CD8+ T cells (% CD69+ cells) EC50 [7] | Cytotoxic assay (THP cells) EC50 [8] | Jurkat-NFAT-Luc reporter cell activation with THP1 cells, EC50 [9]
1 | CODV-Fab-TL1-Knob-RFxhole "hz20G6xhz7G3" antibody-like binding protein (bispecific antibody, human IgG1, kappa, L234A L235A, CODV-Fab-TL format; IgG1 backbone with LALA mutation) light: not shown heavy: QVQLVESGGGVVQPGRSLRLSCAASGFTFTKAWMHWVRQAPGKQLEWVAQIKDKSNSYATYYADSVKGRFTISRDDSKNTLYLQMNSLRAEDTAVYYCRGVYYALSPFDYWGQGTLVTVSSEVQLVQSGAEVKKPGESLKISCKGSGYSFTDYYMKWARQMPGKGLEWMGDIIPSSGATFYNQKFKGQVTISADKSISTTYLQWSSLKASDTAMYYCARSHLLRASWFAYWGQGTMVTVSSASTKGPSVFPLAPSSKSTSGGTAALGCLVKDYFPEPVTVSWNSGALTSGVHTFPAVLQSSGLYSLSSVVTVPSSSLGTQTYICNVNHKPSNTKVDKKVEPKSCDKTHTCPPCPAPEAAGGPSVFLFPPKPKDTLMISRTPEVTCVVVDVSHEDPEVKFNWYVDGVEVHNAKTKPREEQYNSTYRVVSVLTVLHQDWLNGKEYKCKVSNKALPAPIEKTISKAKGQPREPQVCTLPPSRDELTKNQVSLSCAVKGFYPSDIAVEWESNGQPENNYKTTPPVLDSDGSFFLVSKLTVDKSRWQQGNVFSCSVMHEALHNHYTQKSLSLSPG | 0.8 pM | 0.7 pM | 1.2 pM | 63% | 68% | 215 pM | 0.000102 s⁻¹ | 474000 M⁻¹ s⁻¹ | – | – | – | – | –
2 | CODV-Fab-TL1-Knobxhole-RF "hz20G6xhz7G3" antibody-like binding protein (bispecific antibody, human IgG1, kappa, L234A L235A, CODV-Fab-TL format; IgG1 backbone with LALA mutation) light: not shown heavy: QVQLVESGGGVVQPGRSLRLSCAASGFTFTKAWMHWVRQAPGKQLEWVAQIKDKSNSYATYYADSVKGRFTISRDDSKNTLYLQMNSLRAEDTAVYYCRGVYYALSPFDYWGQGTLVTVSSEVQLVQSGAEVKKPGESLKISCKGSGYSFTDYYMKWARQMPGKGLEWMGDIIPSSGATFYNQKFKGQVTISADKSISTTYLQWSSLKASDTAMYYCARSHLLRASWFAYWGQGTMVTVSSASTKGPSVFPLAPSSKSTSGGTAALGCLVKDYFPEPVTVSWNSGALTSGVHTFPAVLQSSGLYSLSSVVTVPSSSLGTQTYICNVNHKPSNTKVDKKVEPKSCDKTHTCPPCPAPEAAGGPSVFLFPPKPKDTLMISRTPEVTCVVVDVSHEDPEVKFNWYVDGVEVHNAKTKPREEQYNSTYRVVSVLTVLHQDWLNGKEYKCKVSNKALPAPIEKTISKAKGQPREPQVCTLPPSRDELTKNQVSLSCAVKGFYPSDIAVEWESNGQPENNYKTTPPVLDSDGSFFLVSKLTVDKSRWQQGNVFSCSVMHEALHNRFTQKSLSLSPG | 1.1 pM | 0.9 pM | 1.6 pM | 64% | 70% | 193 pM | 8.42e-05 s⁻¹ | 437000 M⁻¹ s⁻¹ | – | – | – | – | –
3 | CODV-Fab-TL1-RF "hz20G6xhz7G3" antibody-like binding protein (bispecific antibody, human IgG1, kappa, L234A L235A, Anti-CD3 (hz20G6) x anti-CD123 (hz7G3) in the CODV-Fab-TL format; IgG1 backbone with LALA mutation; also called hz20G6xhz7G3 CODV-Fab-TL1-RF; PB05126) light: DIVMTQSPDSLAVSLGERATINCESSQSLLNSGNQKNYLTWYQQKPGQPPKPLIYWASTRESGVPDRFSGSGSGTDFTLTISSLQAEDVAVYYCQNDYSYPYTFGQGTKLEIKGGSGSSGSGGDIVMTQTPLSLSVTPGQPASISCKSSQSLVHNNANTYLSWYLQKPGQSPQSLIYKVSNRFSGVPDRFSGSGSGTDFTLKISRVEAEDVGVYYCGQGTQYPFTFGSGTKVEIKGGSGSSGSGGRTVAAPSVFIFPPSDEQLKSGTASVVCLLNNFYPREAKVQWKVDNALQSGNSQESVTEQDSKDSTYSLSSTLTLSKADYEKHKVYACEVTHQGLSSPVTKSFNRGECDKTHTCPPCPAPEAAGGPSVFLFPPKPKDTLMISRTPEVTCVVVDVSHEDPEVKFNWYVDGVEVHNAKTKPREEQYNSTYRVVSVLTVLHQDWLNGKEYKCKVSNKALPAPIEKTISKAKGQPREPQVYTLPPSRDELTKNQVSLTCLVKGFYPSDIAVEWESNGQPENNYKTTPPVLDSDGSFFLYSKLTVDKSRWQQGNVFSCSVMHEALHNRFTQKSLSLSPG heavy: not shown | 0.8 pM | 0.5 pM | 0.7 pM | 75% | 78% | 339 pM | 0.000104 s⁻¹ | 308000 M⁻¹ s⁻¹ | 200 pM | 3.2 pM | 9.9 pM | 1 pM | 444 pM
4 | Single chain antibody DART format MGD006 (CD123xCD3 bi-specific diabody) (bispecific antibody, The two chains are covalently bonded to one another by a disulfide bond; also called single chain DART; CD123xCD3 bispecific DART) chain 1: QAVVTQEPSLTVSPGGTVTLTCRSSTGAVTTSNYANWVQQKPGQAPRGLIGGTNKRAPWTPARFSGSLLGGKAALTITGAQAEDEADYYCALWYSNLWVFGGGTKLTVLGGGGSGGGGEVQLVQSGAELKKPGASVKVSCKASGYTFTDYYMKWVRQAPGQGLEWIGDIIPSNGATFYNQKFKGRVTITVDKSTSTAYMELSSLRSEDTAVYYCARSHLLRASWFAYWGQGTLVTVSSGGCGGGEVAALEKEVAALEKEVAALEKEVAALEK chain 2: DFVMTQSPDSLAVSLGERVTMSCKSSQSLLNSGNQKNYLTWYQQKPGQPPKLLIYWASTRESGVPDRFSGSGSGTDFTLTISSLQAEDVAVYYCQNDYSYPYTFGQGTKLEIKGGGSGGGGEVQLVESGGGLVQPGGSLRLSCAASGFTFSTYAMNWVRQAPGKGLEWVGRIRSKYNNYATYYADSVKDRFTISRDDSKNSLYLQMNSLKTEDTAVYYCVRHGNFGNSYVSWFAYWGQGTLVTVSSGGCGGGKVAALKEKVAALKEKVAALKEKVAALKE | – | – | – | – | – | – | – | – | 200 pM | 1 pM | 3.5 pM | 0.3 pM | 370 pM
